Biological target: the molecule itself
Test: AUC

B1: Wild type SgrAI (enzyme, Streptomyces griseus, UniProt Q9F6L0 1-339, looked up)
chain: MPFTYSIEATRNLATTERCIQDIRNAPVRNRSTQFQLAQQNMLAYTFGEVIPGFASAGINGMNYRDVIGRPVENAVTEGTHFFRDDFRVDSNAKAKVAGDIFEIVSSAVMWNCAARWNSLMVGEGWRSQPRYSRPTLSPSPRRQVAVLNLPRSFDWVSLLVPESQEVIEEFRAGLRKDGLGLPTSTPDLAVVVLPEEFQNDEMWREEIAGLTRPNQILLSGAYQRLQGRVQPGEISLAVAFKRSLRSDRLYQPLYEANVMQLLLEGKLGAPKVEFEVHTLAPEGTNAFVTYEAASLYGLAEGRSAVHRAIRELYVPPTAADLARRFFAFLNERMELVNG
**Q.** B1 was tested. Which “stoichiometry N” value did it give?
**A.** 2 SgrAI chains in the DNA bound dimer

Source: publication PMC2972665 (Biochemistry, 2010)
